T1: native 120 kDa APN from M sexta BBMV (Manduca sexta, UniProt Q11001)
T1 construct: native 120 kDa APN from M sexta BBMV; from tissue; host or cells: brush border membrane vesicles from midguts of 5th instar M. sexta larvae, CHAPS-solubilised
T1 sequence (Q11001 36-968): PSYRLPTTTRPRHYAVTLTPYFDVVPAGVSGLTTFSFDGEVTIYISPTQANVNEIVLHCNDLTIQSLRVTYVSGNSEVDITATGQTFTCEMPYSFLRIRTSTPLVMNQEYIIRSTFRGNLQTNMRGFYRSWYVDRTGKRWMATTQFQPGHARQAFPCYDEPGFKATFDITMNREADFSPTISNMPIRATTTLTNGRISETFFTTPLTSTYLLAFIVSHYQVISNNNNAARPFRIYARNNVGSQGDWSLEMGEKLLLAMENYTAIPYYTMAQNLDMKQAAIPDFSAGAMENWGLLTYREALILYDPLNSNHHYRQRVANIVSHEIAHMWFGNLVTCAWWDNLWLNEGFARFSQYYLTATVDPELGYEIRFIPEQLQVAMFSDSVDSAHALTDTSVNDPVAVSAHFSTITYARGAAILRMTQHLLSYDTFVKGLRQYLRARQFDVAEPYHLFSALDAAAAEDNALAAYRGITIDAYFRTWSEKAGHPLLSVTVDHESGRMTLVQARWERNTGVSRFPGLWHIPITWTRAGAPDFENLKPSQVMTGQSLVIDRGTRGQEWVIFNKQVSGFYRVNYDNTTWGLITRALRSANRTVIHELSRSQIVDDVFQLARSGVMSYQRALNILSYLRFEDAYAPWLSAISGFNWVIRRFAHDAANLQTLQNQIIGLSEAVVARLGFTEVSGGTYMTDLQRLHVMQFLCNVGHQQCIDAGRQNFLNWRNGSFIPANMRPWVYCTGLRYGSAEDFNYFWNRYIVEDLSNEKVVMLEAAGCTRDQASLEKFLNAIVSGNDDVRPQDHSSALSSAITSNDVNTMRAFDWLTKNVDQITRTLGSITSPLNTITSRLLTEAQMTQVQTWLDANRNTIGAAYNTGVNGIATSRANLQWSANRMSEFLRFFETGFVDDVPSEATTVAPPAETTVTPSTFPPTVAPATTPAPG

B1: Cry1Ba (65 kDa): B. thuringiensis Cry1Ba toxin, 65 kDa form, provided by Dr. Masson (protein)
chain: IEDSLCIAEGNNIDPFVSASTVQTGINIAGRILGVLGVPFAGQLASFYSFLVGELWPRGRDQWEIFLEHVEQLINQQITENARNTALARLQGLGDSFRAYQQSLEDWLENRDDARTRSVLYTQYIALELDFLNAMPLFAIRNQEVPLLMVYAQAANLHLLLLRDASLFGSEFGLTSQEIQRYYERQVERTRDYSDYCVEWYNTGLNSLRGTNAASWVRYNQFRRDLTLGVLDLVALFPSYDTRTYPINTSAQLTREVYTDAIGATGVNMASMNWYNNNAPSFSAIEAAAIRSPHLLDFLEQLTIFSASSRWSNTRHMTYWRGHTIQSRPIGGGLNTSTHGATNTSINPVTLRFASRDVYRTESYAGVLLWGIYLEPIHGVPTVRFNFTNPQNISDRGTANYSQPYESPGLQLKDSETELPPETTERPNYESYSHRLSHIGIILQSRVNVPVYSWTHRSADRTNTIGPNRITQIPMVKASELPQGTTVVRGPGFTGGDILRRTNTGGFGPIRVTVNGPLTQRYRIGFRYASTVDFDFFVSRGGTTVNNFRFLRTMNSGDELKYGNFVRRAFTTPFTFTQIQDIIRTSIQGLSGNGEVYIDKIEIIPVTATFEAEYDLER
B2: Cry3a: trypsin-activated, purified B. thuringiensis Cry3a toxin (protein)
chain: NPHSQGRIRELFSQAESHFRNSMPSFAISGYEVLFLTTYAQAANTHLFLLKDAQIYGEEWGYEKEDIAEFYKRQLKLTQEYTDHCVKWYNVGLDKLRGSSYESWVNFNRYRREMTLTVLDLIALFPLYDVRLYPKEVKTELTRDVLTDPIVGVNNLRGYGTTFSNIENYIRKPHLFDYLHRIQFHTRFQPGYYGNDSFNYWSGNYVSTRPSIGSNDIITSPFYGNKSSEPVQNLEFNGEKVYRAVANTNLAVWPSAVYSGVTKVEFSQYNDQTDEASTQTYDSKRNVGAVSWDSIDQLPPETTDEPLEKGYSHQLNYVMCFLMQGSRGTIPVLTWTHKSVDFFNMIDSKKITQLPLVKAYKLQSGASVVAGPRFTGGDIIQCTENGSAATIYVTPDVSYSQKYRARIHYASTSQITFTLSLDGAPFNQYYFDKTINKGDTLTYNSFNLASFSTPFELSGNNLQIGVTGLSAGDKVYIDKIEFIPVN

Legend:
[1] = tested on: Sf21 cells transfected with pHSP120; assay: Toxicity assay (Trypan blue cell mortality), Sf21 cells expressing M. sexta 120 kDa APN; conditions: 2 h
Protocol: (§1) The pHSP120 plasmid DNA was isolated and purified using a Plasmid Maxi Kit (Qiagen, Valencia, Calif.). Sf21 (IPLB-Sf21) cells (Vaughn et al., 1977) were plated at 1.8×10^6 cells per plate (60 mm diameter) prior to transfection with pHSP120 DNA. Plasmid DNA (10 μg) was mixed with 5 μl of Lipofectin reagent (Gibco BRL, Gaithersburg, Md.) and combined with 1 ml of TC-100 medium (Gibco BRL, Gaithersburg, Md.). The mixture was incubated at room temperature for 15 min. Following 3 washes with TC-100 medium, the DNA/Lipofectin mixture was added to the cells, and then the cells were incubated at room temperature for 4 h on a rocker. After removal of DNA/Lipofectin mixture, TC-100 with 10% fetal bovine serum (4 ml) was added to the plates and the cells were incubated at 27° C. overnight. Expression of 120 kDa APN in Sf21 cells was induced by heat-shocking cells at 42° C. for 30 min the following day. After incubation at 27° C. for 24 h, the cells were collected and analyzed using immunofluorescence localization and Western blotting.
Sf21 cells (1.8×10^6) were grown and heat-shocked as described above. […] The freshly prepared toxin solution (1 ml) was added to each Sf21 cell plate and incubated at room temperature for 2 h. Cell mortality was determined by trypan blue staining as described by Thomas and Ellar (1983).
(§2) Thetoxicity of three Cry1toxins to Sf21 cells expressing M sexta 120 APN was determined. A single concentration of Cry1toxins (40 μg/ml) was used and the cell mortality was measured by Trypan blue staining (Thomas and Ellar 1983).

[2] = tested on: Sf21 cells transfected with pHSP-HR5; assay: Toxicity assay (Trypan blue cell mortality), control-vector Sf21 cells; conditions: 40 μg/ml toxin in insect PBS, 2 h, Trypan blue (0.1%) staining; means of three assays (±standard error); control vector
Protocol: as §1, with “Expression of 120 kDa APN in Sf21 cells was induced by heat-shocking cells at 42° C. for 30 min the following day.” left out
Sf21 cells (1.8×10^6) were grown and heat-shocked as described above. […] Cell mortality was determined by trypan blue staining as described by Thomas and Ellar (1983).
as §2

[3] = tested on: expressed 120 kDa APN on Sf21 cells transfected with pHSP120; assay: Immunofluorescence binding of rhodamine-labeled toxins to Sf21 cells (confocal microscopy), pHSP120; set-up: species or system Manduca sexta; conditions: toxin 1 μg/ml, fixed Sf21 cells transfected with pHSP120
Protocol: Growth of B. thuringiensis strains, trypsin activation, and fast-performance liquid chromatography (Pharmacia) purification of Cry1Ac, […] and Cry3a toxins were done as previously described (Garczynski et al 1991; Lu and Adang 1996). […] The purified Cry1Ac and Cry1Ba (200 μg) were labeled with 5-(and-6)-carboxytetramethylrhodamine, succinimidyl ester [5(6)-TAMRA SE] (Molecular Probe, Eugene, Oreg.) according to the manufacturer's instructions. Briefly, 5(6)-TAMRA (5 mg) were dissolved in 0.5 ml of Dimethylformamide (DMF) immediately before starting the labeling. The dye solution (100 μl) was slowly added into 500 μl of toxin sample (200 μg toxins) and incubated for 1 h at room temperature. The reaction was stopped by adding 0.1 ml of 1.5 M hydroxylamine, pH 8.5, and then the mixture was incubated. for 1h at room temperature. […]
Sf21 cells were plated onto a microscope cover glass (18×18 mm) in a tissue culture dish (60×15 mm diameter), and then transfected and heat-shocked as described above. […] Immunostained cells were observed using fluorescence microscopy or fluorescence confocal microscopy (Center for Advanced Ultrastructural Research, University of Georgia).
Since the expressed 120 kDa APN located on Sf21 cell surfaces, we examined the binding of Cry1toxins to Sf21 cells using double immunofluorescence staining. […] And then cells were viewed by fluorescence confocal microscopy.

[4] = tested on: expressed 120 kDa APN from Sf21 cells; assay: Toxin affinity chromatography and anti-APN immunoblot, Sf21 cells; assay type: binding, Manduca sexta; conditions: CHAPS-solubilized Sf21 cells, anti-APN immunoblot (FIG. 13)
Protocol: Affinity purification method of M. sexta 120 kDa APN from Sf21 cells or M. sexta midgut BBMV was described in Luo et al (1996). Briefly, Cry1Ac, Cry1Ba and Cry3a toxins (200 μg) were coupled to 400 μl of cyanogen bromide-activated Sepharose 4B in 20 mM Na2CO3, pH 9.6. M sexta BBMV (1 ml, 3.4 mg/ml proteins) or Sf21 cells (10^7 cells) were solubilized with 2% 3-[(3-cholamidopropyl) dimethylammoniol]-1-propane-sulphonate (CHAPS) in buffer A (50 mM Na2CO3, pH 9.6, 200 mM NaCl, 5 mM EGTA, 0.1% CHAPS). Insoluble material was removed by centrifugation at 27,000×g for 30 min at 4° C. CHAPS-solubilized BBMV (1 ml) or Sf21 cells (2 ml) were then added to the toxin-coupled Sepharose beads equilibrated with Buffer A. The mixture was incubated at 4° C. overnight. After washing with 100 ml of Buffer A, the binding protein-toxin complex was dissociated from the beads by heating in SDS-PAGE sample buffer at 100° C. for 5 min. The samples were separated by 8% SDS-PAGE, and then electrophoretically transferred to nitrocellulose membrane (Millipore Corp., Bedford, Mass.) in transfer buffer (Towbin et al., 1979) at 4° C. overnight. The membrane was blocked with 5% non-fat dry milk in PBST at room temperature for 1 h, and then probed with anti-APN antibody (0.5 μg/ml) in PBST containing 0.1% non-fat dry milk for 2 h. […]

[5] = biological target: T1, native 120 kDa APN from M sexta BBMV; assay: Toxin affinity chromatography and anti-APN immunoblot, midgut BBMV; assay type: binding; conditions: CHAPS-solubilized M sexta BBMV, anti-APN immunoblot (FIG. 13)
Protocol: M. sexta larvae were reared on artificial diet (Southland Products, Inc.; Lake Village, Ark.) at 26° C., 70% relative humidity with a photoperiod of 12:12 (Light:Dark) h. Midguts were dissected from second day 5th instar larvae, and either immediately used to prepare brush border membrane vesicles (BBMV) or stored at −80° C. BBMV were prepared according to that described in Wolfersberger et al. (1987) as modified in Ferre et al. (1991) and stored in 0.3 M mannitol, 5 mM EGTA, 17 mM Tris-Cl, pH 7.5, at −80° C. until needed. The 115 kDa M. sexta APN was purified as described previously (Lu and Adang, 1996).
Affinity purification method of M. sexta 120 kDa APN from Sf21 cells or M. sexta midgut BBMV was described in Luo et al (1996). Briefly, Cry1Ac, Cry1Ba and Cry3a toxins (200 μg) were coupled to 400 μl of cyanogen bromide-activated Sepharose 4B in 20 mM Na2CO3, pH 9.6. M sexta BBMV (1 ml, 3.4 mg/ml proteins) or Sf21 cells (10^7 cells) were solubilized with 2% 3-[(3-cholamidopropyl) dimethylammoniol]-1-propane-sulphonate (CHAPS) in buffer A (50 mM Na2CO3, pH 9.6, 200 mM NaCl, 5 mM EGTA, 0.1% CHAPS). Insoluble material was removed by centrifugation at 27,000×g for 30 min at 4° C. CHAPS-solubilized BBMV (1 ml) or Sf21 cells (2 ml) were then added to the toxin-coupled Sepharose beads equilibrated with Buffer A. The mixture was incubated at 4° C. overnight. […]

[6] = 40 μg/ml toxin, the sentence does not say which plasmid

| Molecule | Mortality (%) (±SE), Cells transfected with pHSP 120 ([1]; 40 μg/ml toxin in insect PBS, Trypan blue (0.1%) staining, means of three assays (±standard error)) | Mortality of Sf21 cells (cells killed) [1, 6] | Toxicity to Sf21 cells in words [1, 6] | Mortality (%) (±SE), Cells transfected with pHSP-HR5 [2] | Binding of rhodamine-labeled toxin (immunofluorescence) [3] | Binding of APN to toxin affinity column [4] | Binding of APN to toxin affinity column [5] |
| --- | --- | --- | --- | --- | --- | --- | --- |
| B1 | 17.6 (±0.9) % | about 17% | low toxicity | 16.5 (±0.1) % | only bound weakly | bound weakly | bound weakly |
| B2 | – | – | – | – | – | did not bind | – |
